Target: human Keap1 protein (human), Q14145
Assay: BLI
Details: natural protein; chains chain; biotinylated (site not stated); remark: other sources report otherwise

Sequence of human Keap1 protein (human), Q14145 (Q14145 whole entry): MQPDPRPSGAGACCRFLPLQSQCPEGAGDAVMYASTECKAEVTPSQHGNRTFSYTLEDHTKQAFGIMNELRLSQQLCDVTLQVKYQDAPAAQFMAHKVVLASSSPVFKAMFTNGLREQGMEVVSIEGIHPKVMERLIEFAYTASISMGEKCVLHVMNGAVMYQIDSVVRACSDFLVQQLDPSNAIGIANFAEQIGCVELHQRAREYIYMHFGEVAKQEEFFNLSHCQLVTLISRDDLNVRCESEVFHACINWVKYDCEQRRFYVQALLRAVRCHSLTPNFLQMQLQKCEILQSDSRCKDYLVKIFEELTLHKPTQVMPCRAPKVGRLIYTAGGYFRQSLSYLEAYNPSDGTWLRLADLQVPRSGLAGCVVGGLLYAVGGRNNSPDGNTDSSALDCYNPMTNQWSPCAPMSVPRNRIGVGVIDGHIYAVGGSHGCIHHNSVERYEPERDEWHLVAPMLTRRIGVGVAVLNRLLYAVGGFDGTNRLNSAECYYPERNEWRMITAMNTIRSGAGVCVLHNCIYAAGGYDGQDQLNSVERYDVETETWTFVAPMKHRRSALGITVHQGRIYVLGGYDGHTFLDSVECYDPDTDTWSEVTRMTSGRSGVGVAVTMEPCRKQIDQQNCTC

Kd: 12.6 nM
B1: human Nrf2 protein, Q16236 1-605 (protein)
chain: MMDLELPPPGLPSQQDMDLIDILWRQDIDLGVSREVFDFSQRRKEYELEKQKKLEKERQEQLQKEQEKAFFAQLQLDEETGEFLPIQPAQHIQSETSGSANYSQVAHIPKSDALYFDDCMQLLAQTFPFVDDNEVSSATFQSLVPDIPGHIESPVFIATNQAQSPETSVAQVAPVDLDGMQQDIEQVWEELLSIPELQCLNIENDKLVETTMVPSPEAKLTEVDNYHFYSSIPSMEKEVGNCSPHFLNAFEDSFSSILSTEDPNQLTVNSLNSDATVNTDFGDEFYSAFIAEPSISNSMPSPATLSHSLSELLNGPIDVSDLSLCKAFNQNHPESTAEFNDSDSGISLNTSPSVASPEHSVESSSYGDTLLGLSDSEVEELDSAPGSVKQNGPKTPVHSSGDMVQPLSPSQGQSTHVHDAQCENTPEKELPVSPGHRKTPFTKDKHSSRLEAHLTRDELRAKALHIPFPVEKIINLPVVDFNEMMSKEQFNEAQLALIRDIRRRGKNKVAAQNCRKRKLENIVELEQDLDHLKDEKEKLLKEKGENDKSLHLLKKQLSTLYLEVFSMLRDEDGKPYSPSEYSLQQTRDGNVFLVPKSKKPDVKKN

— article PMC7972864, “Fucoxanthin Prevents 6-OHDA-Induced Neurotoxicity by Targeting Keap1” (Oxidative Medicine and Cellular Longevity, 2021)
